Assay results as given in patent EP1918299A1 (UNIVERSITE DE GENEVE, dated 2008).

T1: myc-tagged version of Necl-3 (pNecl-3-myc) (human, UniProt Q8N3J6 25-435)
T1 construct: On S2 cells in the aggregation assay; not shown: C-terminal myc-His tag of vector pcDNA3.1/myc-His
T1 sequence: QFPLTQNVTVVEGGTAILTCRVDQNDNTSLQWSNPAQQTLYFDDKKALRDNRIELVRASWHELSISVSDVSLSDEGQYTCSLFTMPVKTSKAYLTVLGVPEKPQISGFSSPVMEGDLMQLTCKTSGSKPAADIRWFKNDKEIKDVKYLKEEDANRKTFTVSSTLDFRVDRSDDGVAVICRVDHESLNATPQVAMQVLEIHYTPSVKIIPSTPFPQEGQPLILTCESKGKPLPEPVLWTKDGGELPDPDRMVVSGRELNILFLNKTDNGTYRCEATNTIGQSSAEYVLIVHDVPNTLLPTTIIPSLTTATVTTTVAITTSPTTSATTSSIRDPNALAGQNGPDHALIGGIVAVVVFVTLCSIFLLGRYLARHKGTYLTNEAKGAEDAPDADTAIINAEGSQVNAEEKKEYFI

T2: Necl-1-GFP (human Necl-1 fused to GFP at its carboxy-terminus) (human, UniProt Q8N126 25-398)
T2 construct: Expressed in S2 cells; In lysate in the western blot; also called pMT-Necl-1-GFP; not shown: GFP of vector pEGFP-N1 (BD Biosciences Clontech), C-terminal fusion
T2 sequence: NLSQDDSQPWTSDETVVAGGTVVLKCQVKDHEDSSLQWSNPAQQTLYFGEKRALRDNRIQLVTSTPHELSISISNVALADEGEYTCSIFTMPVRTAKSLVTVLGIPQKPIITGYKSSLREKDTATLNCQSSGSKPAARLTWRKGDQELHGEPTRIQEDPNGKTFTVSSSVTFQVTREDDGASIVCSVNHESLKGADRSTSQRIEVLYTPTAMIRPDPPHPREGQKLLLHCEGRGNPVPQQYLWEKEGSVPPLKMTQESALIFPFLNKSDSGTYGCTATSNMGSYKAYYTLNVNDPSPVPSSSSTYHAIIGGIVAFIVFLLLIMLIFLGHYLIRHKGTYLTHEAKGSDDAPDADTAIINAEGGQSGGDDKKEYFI

B1: Necl-3-GFP (human Necl-3 fused to GFP at its carboxy-terminus) (other)
chain: T1 sequence
notes: Expressed in Drosophila S2 cells; on cells in the aggregation assays, in crude cell lysate in the western blot; also called pMT-Necl-3-GFP; not shown: GFP of vector pEGFP-N1 (BD Biosciences Clontech), C-terminal fusion
B2: Necl-1-DsRed2 (human Necl-1 fused to DsRed2) (other)
chain: T2 sequence
notes: On S2 cells; also called pMT-Necl-1-DsRed2; not shown: DsRed2 (Discosoma Red) of vector pDsRed2-N1 (BD Biosciences Clontech), C-terminal fusion
B3: Necl-2-GFP (human Necl-2 fused to GFP at its carboxy-terminus) (other)
chain: QNLFTKDVTVIEGEVATISCQVNKSDDSVIQLLNPNRQTIYFRDFRPLKDSRFQLLNFSSSELKVSLTNVSISDEGRYFCQLYTDPPQESYTTITVLVPPRNLMIDIQKDTAVEGEEIEVNCTAMASKPATTIRWFKGNTELKGKSEVEEWSDMYTVTSQLMLKVHKEDDGVPVICQVEHPAVTGNLQTQRYLEVQYKPQVHIQMTYPLQGLTREGDALELTCEAIGKPQPVMVTWVRVDDEMPQHAVLSGPNLFINNLNKTDNGTYRCEASNIVGKAHSDYMLYVYDPPTTIPPPTTTTTTTTTTTTTILTIITDSRAGEEGSIRAVDHAVIGGVVAVVVFAMLCLLIILGRYFARHKGTYFTHEAKGADDAADADTAIINAEGGQNNSEEKKEYFI
notes: Expressed in S2 cells; on cells in aggregation assays, in cell lysate in the western blot and the pull-down; also called pMT-Necl-2-GFP; not shown: GFP of vector pEGFP-N1 (BD Biosciences Clontech), C-terminal fusion
B4: Necl-4-DsRed2 (human Necl-4 fused to DsRed2) (other)
chain: QEVQTENVTVAEGGVAEITCRLHQYDGSIVVIQNPARQTLFFNGTRALKDERFQLEEFSPRRVRIRLSDARLEDEGGYFCQLYTEDTHHQIATLTVLVAPENPVVEVREQAVEGGEVELSCLVPRSRPAATLRWYRDRKELKGVSSSQENGKVWSVASTVRFRVDRKDDGGIIICEAQNQALPSGHSKQTQYVLDVQYSPTARIHASQAVVREGDTLVLTCAVTGNPRPNQIRWNRGNESLPERAEAVGETLTLPGLVSADNGTYTCEASNKHGHARALYVLVVYDPGAVVEAQTSVPYAIVGGILALLVFLIICVLVGMVWCSVRQKGSYLTHEASGLDEQGEAREAFLNGSDGHKRKEEFFI
notes: On S2 cells; also called pMT-Necl-4-DsRed2; not shown: DsRed2 (Discosoma Red) of pMT-DsRed2, C-terminal fusion
B5: Necl-4-GFP (human Necl-4 fused to GFP at its carboxy-terminus) (other)
chain: B4 chain
notes: In lysate in the western blot; also called pMT-Necl-4-GFP; not shown: GFP of vector pEGFP-N1 (via pMT-GFP), C-terminal fusion

Tests used:
Assay in all cases: S2 cell aggregation assay
[1] = target: the molecule itself
[2] = target: B1
[3] = target: T1, myc-tagged version of Necl-3 …
[4] = target: B3
[5] = target: T2, Necl-1-GFP (human Necl-1 fused to GFP …)

binding result [2] | Binder | binding result [1] | other results
 | B1 | binds | 
binds | B2 |  | 
 | B3 |  | binding result [3]: binds
binds | B4 |  | binding result [4]: binds; binding result [5]: binds
 | B5 | binds | 
